The text below walks through data of PMC12126155 (Molecular cell, 2025).

The target in this assay is histone H4 (X. laevis), as in the H3K4Cme3 nucleosome (X. laevis, UniProt P62799 1-103). Put plainly: cryo-EM structure.

B1: H. sapiens Chromodomain Helicase DNA Binding Protein 1 (CHD1 residues 1-1327 lacking the CHCT domain) (enzyme)
chain: MNGHSDEESVRNSSGESSQSDDDSGSASGSGSGSSSGSSSDGSSSQSGSSDSDSGSESGSQSESESDTSRENKVQAKPPKVDGAEFWKSSPSILAVQRSAILKKQQQQQQQQQHQASSNSGSEEDSSSSEDSDDSSSEVKRKKHKDEDWQMSGSGSPSQSGSDSESEEEREKSSCDETESDYEPKNKVKSRKPQNRSKSKNGKKILGQKKRQIDSSEEDDDEEDYDNDKRSSRRQATVNVSYKEDEEMKTDSDDLLEVCGEDVPQPEEEEFETIERFMDCRIGRKGATGATTTIYAVEADGDPNAGFEKNKEPGEIQYLIKWKGWSHIHNTWETEETLKQQNVRGMKKLDNYKKKDQETKRWLKNASPEDVEYYNCQQELTDDLHKQYQIVERIIAHSNQKSAAGYPDYYCKWQGLPYSECSWEDGALISKKFQACIDEYFSRNQSKTTPFKDCKVLKQRPRFVALKKQPSYIGGHEGLELRDYQLNGLNWLAHSWCKGNSCILADEMGLGKTIQTISFLNYLFHEHQLYGPFLLVVPLSTLTSWQREIQTWASQMNAVVYLGDINSRNMIRTHEWTHHQTKRLKFNILLTTYEILLKDKAFLGGLNWAFIGVDEAHRLKNDDSLLYKTLIDFKSNHRLLITGTPLQNSLKELWSLLHFIMPEKFSSWEDFEEEHGKGREYGYASLHKELEPFLLRRVKKDVEKSLPAKVEQILRMEMSALQKQYYKWILTRNYKALSKGSKGSTSGFLNIMMELKKCCNHCYLIKPPDNNEFYNKQEALQHLIRSSGKLILLDKLLIRLRERGNRVLIFSQMVRMLDILAEYLKYRQFPFQRLDGSIKGELRKQALDHFNAEGSEDFCFLLSTRAGGLGINLASADTVVIFDSDWNPQNDLQAQARAHRIGQKKQVNIYRLVTKGSVEEDILERAKKKMVLDHLVIQRMDTTGKTVLHTGSAPSSSTPFNKEELSAILKFGAEELFKEPEGEEQEPQEMDIDEILKRAETHENEPGPLTVGDELLSQFKVANFSNMDEDDIELEPERNSKNWEEIIPEDQRRRLEEEERQKELEEIYMLPRMRNCAKQISFNGSEGRRSRSRRYSGSDSDSISEGKRPKKRGRPRTIPRENIKGFSDAEIRRFIKSYKKFGGPLERLDAIARDAELVDKSETDLRRLGELVHNGCIKALKDSSSGTERTGGRLGKVKGPTFRISGVQVNAKLVISHEEELIPLHKSIPSDPEERKQYTIPCHTKAAHFDIDWGKEDDSNLLIGIYEYGYGSWEMIKMDPDLSLTHKILPDDPDKKPQAKQLQTRADYLIKLLSRDLAKKEALSGAG
With B1, the binding result is recorded as “binds”.
